# Measured values from patent publication US20160008485A1 (Pfizer, published 2016).
# Values joined by “and” are separate entries in the source; they are usually repeats but may differ in a detail not shown here. Equal values may be shown once.
# T1: human 5T4 antigen on cells (MDAMB435/5T4 transfectants; MDA-MB-468) (human, UniProt Q13641 32-420)
# T1 sequence (looked up): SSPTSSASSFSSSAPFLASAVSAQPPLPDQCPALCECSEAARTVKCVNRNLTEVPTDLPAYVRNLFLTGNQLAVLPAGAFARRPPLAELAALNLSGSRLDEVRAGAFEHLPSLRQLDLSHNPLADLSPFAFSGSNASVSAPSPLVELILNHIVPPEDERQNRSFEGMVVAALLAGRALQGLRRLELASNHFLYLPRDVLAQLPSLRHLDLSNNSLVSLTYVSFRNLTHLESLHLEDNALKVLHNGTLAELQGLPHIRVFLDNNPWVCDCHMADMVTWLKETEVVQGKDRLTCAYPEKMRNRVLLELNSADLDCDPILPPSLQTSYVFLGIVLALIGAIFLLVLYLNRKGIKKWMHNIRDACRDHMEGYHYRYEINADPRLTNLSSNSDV
# T2: human truncated recombinant 5T4 protein (5T4-tm-_myc_his) (human, UniProt Q13641 32-355)
# T2 construct: extracellular domain; Coated on the ELISA plate; construct cited to Boghaert et al. 2008; also called 5T4 antigen; not shown: Myc and histidine tags
# T2 sequence (looked up): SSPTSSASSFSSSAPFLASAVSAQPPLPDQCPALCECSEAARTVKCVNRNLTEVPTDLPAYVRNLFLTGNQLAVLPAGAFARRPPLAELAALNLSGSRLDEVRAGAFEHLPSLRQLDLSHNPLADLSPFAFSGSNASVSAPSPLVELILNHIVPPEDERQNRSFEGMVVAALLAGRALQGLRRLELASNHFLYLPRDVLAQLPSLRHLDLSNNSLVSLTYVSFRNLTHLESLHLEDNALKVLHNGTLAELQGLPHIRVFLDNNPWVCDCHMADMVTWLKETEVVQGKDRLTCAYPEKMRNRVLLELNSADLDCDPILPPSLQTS
# Molecular target: T1, human 5T4 antigen on cells …
# Test: cell-based or functional assay
Binder,"IC50, growth inhibition (MTS), MDA-MB-468 cells (5T4 expression 2+)","IC-50, growth inhibition (MTS), MDAMB435/5T4 cells (5T4 expression 3+)"
"5T4-E380C+L443C-mcMMAD (antibody, mcMMAD on engineered Cys 380 and Cys 443 (EU)) heavy: not shown light: DIQMTQSPSSLSASVGDRVTITCKASQSVSNDVAWYQQKPGKAPKLLIYFATNRYTGVPSRFSGSGYGTDFTLTISSLQPEDFATYYCQQDYSSPWTFGQGTKVEIKRTVAAPSVFIFPPSDEQLKSGTASVVCLLNNFYPREAKVQWKVDNALQSGNSQESVTEQDSKDSTYSLSSTLTLSKADYEKHKVYACEVTHQGLSSPVTKSFNRGEC",3.3 µg/mL,79 ng ADC/ml
"5T4-V422C-vcMMAD (antibody, human IgG1, kappa, vcMMAD (mcValCitPABC-MMAD) on engineered Cys 422 (EU)) heavy: not shown light: DIQMTQSPSSLSASVGDRVTITCKASQSVSNDVAWYQQKPGKAPKLLIYFATNRYTGVPSRFSGSGYGTDFTLTISSLQPEDFATYYCQQDYSSPWTFGQGTKVEIKRTVAAPSVFIFPPSDEQLKSGTASVVCLLNNFYPREAKVQWKVDNALQSGNSQESVTEQDSKDSTYSLSSTLTLSKADYEKHKVYACEVTHQGLSSPVTKSFNRGEC",,15 ng ADC/ml
"5T4-E380C+L398C-mcMMAD (antibody, human IgG1, kappa, mcMMAD on engineered Cys 380 and Cys 398 (EU)) heavy: not shown light: DIQMTQSPSSLSASVGDRVTITCKASQSVSNDVAWYQQKPGKAPKLLIYFATNRYTGVPSRFSGSGYGTDFTLTISSLQPEDFATYYCQQDYSSPWTFGQGTKVEIKRTVAAPSVFIFPPSDEQLKSGTASVVCLLNNFYPREAKVQWKVDNALQSGNSQESVTEQDSKDSTYSLSSTLTLSKADYEKHKVYACEVTHQGLSSPVTKSFNRGEC",5.1 µg/mL,79 ng ADC/ml
"5T4-K392C+L443C-mcMMAD (antibody, mcMMAD on engineered Cys 392 and Cys 443 (EU)) heavy: not shown light: DIQMTQSPSSLSASVGDRVTITCKASQSVSNDVAWYQQKPGKAPKLLIYFATNRYTGVPSRFSGSGYGTDFTLTISSLQPEDFATYYCQQDYSSPWTFGQGTKVEIKRTVAAPSVFIFPPSDEQLKSGTASVVCLLNNFYPREAKVQWKVDNALQSGNSQESVTEQDSKDSTYSLSSTLTLSKADYEKHKVYACEVTHQGLSSPVTKSFNRGEC",30 µg/mL,98 ng ADC/ml
"5T4-K392C-mcMMAD (antibody, human IgG1, kappa, mcMMAD on engineered Cys 392 (EU)) heavy: not shown light: DIQMTQSPSSLSASVGDRVTITCKASQSVSNDVAWYQQKPGKAPKLLIYFATNRYTGVPSRFSGSGYGTDFTLTISSLQPEDFATYYCQQDYSSPWTFGQGTKVEIKRTVAAPSVFIFPPSDEQLKSGTASVVCLLNNFYPREAKVQWKVDNALQSGNSQESVTEQDSKDSTYSLSSTLTLSKADYEKHKVYACEVTHQGLSSPVTKSFNRGEC",32 µg/mL,160 ng ADC/ml
"5T4-L398C+V422C-mcMMAD (antibody, human IgG1, kappa, mcMMAD on engineered Cys 398 and Cys 422 (EU)) heavy: not shown light: DIQMTQSPSSLSASVGDRVTITCKASQSVSNDVAWYQQKPGKAPKLLIYFATNRYTGVPSRFSGSGYGTDFTLTISSLQPEDFATYYCQQDYSSPWTFGQGTKVEIKRTVAAPSVFIFPPSDEQLKSGTASVVCLLNNFYPREAKVQWKVDNALQSGNSQESVTEQDSKDSTYSLSSTLTLSKADYEKHKVYACEVTHQGLSSPVTKSFNRGEC",17 µg/mL,100 ng ADC/ml
"5T4-E380C-vcMMAD (antibody, human IgG1, kappa, vcMMAD (mcValCitPABC-MMAD) on engineered Cys 380 (EU)) heavy: not shown light: DIQMTQSPSSLSASVGDRVTITCKASQSVSNDVAWYQQKPGKAPKLLIYFATNRYTGVPSRFSGSGYGTDFTLTISSLQPEDFATYYCQQDYSSPWTFGQGTKVEIKRTVAAPSVFIFPPSDEQLKSGTASVVCLLNNFYPREAKVQWKVDNALQSGNSQESVTEQDSKDSTYSLSSTLTLSKADYEKHKVYACEVTHQGLSSPVTKSFNRGEC",,15 ng ADC/ml
"5T4-L398C+L443C-mcMMAD (antibody, mcMMAD on engineered Cys 398 and Cys 443 (EU)) heavy: not shown light: DIQMTQSPSSLSASVGDRVTITCKASQSVSNDVAWYQQKPGKAPKLLIYFATNRYTGVPSRFSGSGYGTDFTLTISSLQPEDFATYYCQQDYSSPWTFGQGTKVEIKRTVAAPSVFIFPPSDEQLKSGTASVVCLLNNFYPREAKVQWKVDNALQSGNSQESVTEQDSKDSTYSLSSTLTLSKADYEKHKVYACEVTHQGLSSPVTKSFNRGEC",5.5 µg/mL and 7.1 µg/mL,
"5T4-L443C-vcMMAD (antibody, vcMMAD (mcValCitPABC-MMAD) on engineered Cys 443 (EU)) heavy: not shown light: DIQMTQSPSSLSASVGDRVTITCKASQSVSNDVAWYQQKPGKAPKLLIYFATNRYTGVPSRFSGSGYGTDFTLTISSLQPEDFATYYCQQDYSSPWTFGQGTKVEIKRTVAAPSVFIFPPSDEQLKSGTASVVCLLNNFYPREAKVQWKVDNALQSGNSQESVTEQDSKDSTYSLSSTLTLSKADYEKHKVYACEVTHQGLSSPVTKSFNRGEC",1.4 µg/mL,40 ng ADC/ml
"5T4-E380C+V422C-mcMMAD (antibody, human IgG1, kappa, mcMMAD on engineered Cys 380 and Cys 422 (EU)) heavy: not shown light: DIQMTQSPSSLSASVGDRVTITCKASQSVSNDVAWYQQKPGKAPKLLIYFATNRYTGVPSRFSGSGYGTDFTLTISSLQPEDFATYYCQQDYSSPWTFGQGTKVEIKRTVAAPSVFIFPPSDEQLKSGTASVVCLLNNFYPREAKVQWKVDNALQSGNSQESVTEQDSKDSTYSLSSTLTLSKADYEKHKVYACEVTHQGLSSPVTKSFNRGEC",5 µg/mL,100 ng ADC/ml
"5T4-L398C-vcMMAD (antibody, human IgG1, kappa, vcMMAD (mcValCitPABC-MMAD) on engineered Cys 398 (EU)) heavy: not shown light: DIQMTQSPSSLSASVGDRVTITCKASQSVSNDVAWYQQKPGKAPKLLIYFATNRYTGVPSRFSGSGYGTDFTLTISSLQPEDFATYYCQQDYSSPWTFGQGTKVEIKRTVAAPSVFIFPPSDEQLKSGTASVVCLLNNFYPREAKVQWKVDNALQSGNSQESVTEQDSKDSTYSLSSTLTLSKADYEKHKVYACEVTHQGLSSPVTKSFNRGEC",,14 ng ADC/ml

# Molecular target: T3, human FcRn (human, UniProt P55899 24-297; P61769 21-119, limits assumed, biotinylated through an engineered Avi-tag)
# T3 construct: Immobilised on a streptavidin chip; not shown: engineered Avi-tag
# T3 sequence (P55899 24-297 limits assumed, chain 1 of 2): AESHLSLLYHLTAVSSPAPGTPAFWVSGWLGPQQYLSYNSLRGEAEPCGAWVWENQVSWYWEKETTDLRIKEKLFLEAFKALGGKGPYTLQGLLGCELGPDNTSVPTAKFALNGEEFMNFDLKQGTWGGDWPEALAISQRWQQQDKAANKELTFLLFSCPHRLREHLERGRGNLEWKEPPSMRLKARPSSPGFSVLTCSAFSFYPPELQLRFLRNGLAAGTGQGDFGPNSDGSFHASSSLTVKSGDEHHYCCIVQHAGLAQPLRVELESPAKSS
# T3 sequence (P61769 21-119 limits assumed, chain 2 of 2): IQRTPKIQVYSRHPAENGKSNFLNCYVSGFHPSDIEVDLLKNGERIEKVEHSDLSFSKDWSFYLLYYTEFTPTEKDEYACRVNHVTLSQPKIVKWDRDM
# Test: BIAcore SPR, steady state, pH 6.0, biotinylated human FcRn on SA chip
row,Binder,Kd
1,"5T4-E380C (antibody, human IgG1, kappa) heavy: not shown light: DIQMTQSPSSLSASVGDRVTITCKASQSVSNDVAWYQQKPGKAPKLLIYFATNRYTGVPSRFSGSGYGTDFTLTISSLQPEDFATYYCQQDYSSPWTFGQGTKVEIKRTVAAPSVFIFPPSDEQLKSGTASVVCLLNNFYPREAKVQWKVDNALQSGNSQESVTEQDSKDSTYSLSSTLTLSKADYEKHKVYACEVTHQGLSSPVTKSFNRGEC",390 nM
2,"5T4-L398C (antibody, human IgG1, kappa) heavy: not shown light: DIQMTQSPSSLSASVGDRVTITCKASQSVSNDVAWYQQKPGKAPKLLIYFATNRYTGVPSRFSGSGYGTDFTLTISSLQPEDFATYYCQQDYSSPWTFGQGTKVEIKRTVAAPSVFIFPPSDEQLKSGTASVVCLLNNFYPREAKVQWKVDNALQSGNSQESVTEQDSKDSTYSLSSTLTLSKADYEKHKVYACEVTHQGLSSPVTKSFNRGEC",513 nM
3,"5T4-S440C (antibody, IgG1) heavy: not shown light: DIQMTQSPSSLSASVGDRVTITCKASQSVSNDVAWYQQKPGKAPKLLIYFATNRYTGVPSRFSGSGYGTDFTLTISSLQPEDFATYYCQQDYSSPWTFGQGTKVEIKRTVAAPSVFIFPPSDEQLKSGTASVVCLLNNFYPREAKVQWKVDNALQSGNSQESVTEQDSKDSTYSLSSTLTLSKADYEKHKVYACEVTHQGLSSPVTKSFNRGEC",608 nM
4,"5T4-V422C (antibody, human IgG1, kappa) heavy: not shown light: DIQMTQSPSSLSASVGDRVTITCKASQSVSNDVAWYQQKPGKAPKLLIYFATNRYTGVPSRFSGSGYGTDFTLTISSLQPEDFATYYCQQDYSSPWTFGQGTKVEIKRTVAAPSVFIFPPSDEQLKSGTASVVCLLNNFYPREAKVQWKVDNALQSGNSQESVTEQDSKDSTYSLSSTLTLSKADYEKHKVYACEVTHQGLSSPVTKSFNRGEC",443 nM
5,"5T4-K392C (antibody, human IgG1, kappa) heavy: not shown light: DIQMTQSPSSLSASVGDRVTITCKASQSVSNDVAWYQQKPGKAPKLLIYFATNRYTGVPSRFSGSGYGTDFTLTISSLQPEDFATYYCQQDYSSPWTFGQGTKVEIKRTVAAPSVFIFPPSDEQLKSGTASVVCLLNNFYPREAKVQWKVDNALQSGNSQESVTEQDSKDSTYSLSSTLTLSKADYEKHKVYACEVTHQGLSSPVTKSFNRGEC",384 nM

# Molecular target: T2, human truncated recombinant 5T4 protein …
# Test: competition ELISA on plate-coated 5T4-tm-_myc_his; competitor: biotinylated wild type anti-5T4 antibody at 1.3 nM, detected with streptavidin-HRP, OD450
# Protocol: That is, both the variants and the control wild type antibodies comprised human IgG1 Fc regions. […] The contents of the plate were discarded and then the plate was blocked with PBS-CMF pH7.2+0.02% casein for 3 hours at room temperature.
# The wells were washed four times with PBS-CMF pH7.2+0.03% tween-20. Streptavidin-HRP (catalog #7100-05, Southern Biotech, (Birmingham, Ala.) diluted 1:10,000 was added and incubated for 30 minutes at room temperature. The wells were washed four times with PBS-CMF pH 7.2+0.03% tween-20 and TMB (BioFx) was added.
Binder,IC50 (read off the curve),binding result
"5T4-L398C (antibody, human IgG1, kappa) heavy: not shown light: DIQMTQSPSSLSASVGDRVTITCKASQSVSNDVAWYQQKPGKAPKLLIYFATNRYTGVPSRFSGSGYGTDFTLTISSLQPEDFATYYCQQDYSSPWTFGQGTKVEIKRTVAAPSVFIFPPSDEQLKSGTASVVCLLNNFYPREAKVQWKVDNALQSGNSQESVTEQDSKDSTYSLSSTLTLSKADYEKHKVYACEVTHQGLSSPVTKSFNRGEC",~7 nM,
"5T4-F404C (antibody, human IgG1, kappa) heavy: not shown light: DIQMTQSPSSLSASVGDRVTITCKASQSVSNDVAWYQQKPGKAPKLLIYFATNRYTGVPSRFSGSGYGTDFTLTISSLQPEDFATYYCQQDYSSPWTFGQGTKVEIKRTVAAPSVFIFPPSDEQLKSGTASVVCLLNNFYPREAKVQWKVDNALQSGNSQESVTEQDSKDSTYSLSSTLTLSKADYEKHKVYACEVTHQGLSSPVTKSFNRGEC",,binds
"5T4-S440C (antibody, IgG1) heavy: not shown light: DIQMTQSPSSLSASVGDRVTITCKASQSVSNDVAWYQQKPGKAPKLLIYFATNRYTGVPSRFSGSGYGTDFTLTISSLQPEDFATYYCQQDYSSPWTFGQGTKVEIKRTVAAPSVFIFPPSDEQLKSGTASVVCLLNNFYPREAKVQWKVDNALQSGNSQESVTEQDSKDSTYSLSSTLTLSKADYEKHKVYACEVTHQGLSSPVTKSFNRGEC",~6 nM,
"5T4-V422C (antibody, human IgG1, kappa) heavy: not shown light: DIQMTQSPSSLSASVGDRVTITCKASQSVSNDVAWYQQKPGKAPKLLIYFATNRYTGVPSRFSGSGYGTDFTLTISSLQPEDFATYYCQQDYSSPWTFGQGTKVEIKRTVAAPSVFIFPPSDEQLKSGTASVVCLLNNFYPREAKVQWKVDNALQSGNSQESVTEQDSKDSTYSLSSTLTLSKADYEKHKVYACEVTHQGLSSPVTKSFNRGEC",~7 nM,
"5T4-T359C (antibody, human IgG1, kappa) heavy: not shown light: DIQMTQSPSSLSASVGDRVTITCKASQSVSNDVAWYQQKPGKAPKLLIYFATNRYTGVPSRFSGSGYGTDFTLTISSLQPEDFATYYCQQDYSSPWTFGQGTKVEIKRTVAAPSVFIFPPSDEQLKSGTASVVCLLNNFYPREAKVQWKVDNALQSGNSQESVTEQDSKDSTYSLSSTLTLSKADYEKHKVYACEVTHQGLSSPVTKSFNRGEC",~6 nM,
